Data reported in US20140037626A1, “Metal Abstraction Peptide With Release of Metal” (Echogen, Inc., priority 2012, published 2014).
Ends that are not written are not given here.

Experiments:
[1] = pH-dependent release of platinum from MAP peptides (absorption, NMR, MS); type: physicochemical; details: low pH (pH 2.47 with excess ammonium chloride in FIG. 10)
Description: Because Pt is bound to ammonia and chloride ligands in the common inorganic complex cisplatin, the release experiment was also performed in the presence of excess ammonium chloride. […] Additionally, ^1H NMR of the GGNCC (SEQ ID NO.:1), and Pt-GGNCC (SEQ ID NO.:1) at low pH were all performed.
MS data was obtained at low pH when solvent (DMSO) was added to the peptide-metal complex before dropping the pH, to keep some of the species that result from metal release soluble. Although a small amount of a yellow precipitate formed, the peptide returned to the apo state and remained in solution as determined by MS (FIG. 12). By adding DMSO to the solution, a similar release experiment was performed using absorption spectroscopy. […] The loss of absorbance intensity corresponded to loss of metal from the complex. The loss of intensity was monitored at 315 nm, as this is a significant, yet unique, feature in the Pt-NCC spectral profile, and pH dependent release curve was prepared (FIG. 13).

[2] = pH-dependent release of nickel from MAP peptides by absorption spectroscopy; type: physicochemical; details: FIG. 9; intensity at 415 nm with decreasing pH
Description: The loss of absorbance intensity corresponds to loss of metal from the complex, as the absorption features that are observed for Ni-MAP are due to ligand to metal charge transfer (LMCT) bands and d to d transitions. By monitoring the intensity of one specific peak (415 nm for the pentapteptide) with decreasing pH, the percent of the complex remaining at each pH unit was calculated and plotted (FIG. 9).
pH release experiments were then performed (FIG. 16), and release curves were prepared for each of the six peptides (FIG. 17).

Pt-GGNCC: platinum complex of the pentapeptide GGNCC (SEQ ID NO.:1) (cysteine pairing not given here; also: platinum complex)
precipitation of the Pt-peptide complex at low pH [1]: Precipitation occurred

GNNCC: nickel complex of the pentapeptide GNNCC (SEQ ID NO.:2) (cysteine pairing not given here; also: nickel complex)
pH range in which pH-dependent release of nickel occurs rapidly [2]: 6-7 pH
